In patent US9879306B2, “Luciferase biosensors for cAMP” (PROMEGA CORPORATION, priority 2008, dated 2018):

Assays:
[1] = test system: catalytic subunit of protein kinase A; conditions: reversed by phosphatase; cited from earlier work
[2] = test system: cyclic AMP dependent protein kinase catalytic subunit; conditions: serine at position 543; alkaline phosphatase restored activity; cited from earlier work
[3] = target: T1, endogenous beta2-adrenergic receptor (Homo sapiens, UniProt P07550); assay: Stimulatory response to isoproterenol in HEK293 cells (Gs pathway); type: cell-based; conditions: 10 μM isoproterenol, relative to biosensor with GSSGGSGGSGGG linker
T1 construct: agonist of the endogenous beta2-adrenergic receptor; endogenous in cells; host or cells: HEK293
Source text: (§1) A mutant cAMP biosensor (termed L9; SEQ ID NO: 104; SEQ ID NO: 105) having a mutant RIIβB binding site (substitutions E284A and V316I) and a modified linker sequence (GSIAGCGDAGEG, SEQ ID NO: 57; SEQ ID NO: 128) was screened for increased light output and increased fold response when expressed in mammalian cells (primary sequence Met-(Photinus pyralis luciferase residues 359-544)-(GSIAGCGDAGEG (SEQ ID NO: 57; SEQ ID NO: SEQ ID NO: 128))-(RIIβB E284A, V316I)-(Photinus pyralis luciferase residues 4-355)-Val). For a stimulatory response, transient expression in HEK293 cells was followed by treatment with 10 μM isoproterenol (agonist of the endogenous beta2-adrenergic receptor). For an inhibitory response, transient expression in HEK293 cells that stably express the dopamine D2 receptor was followed by simultaneous treatment with dopamine in the presence or absence of forskolin

GPR41 [4] = assay: Sodium proprionate CRC with biosensor variants in HEK293 cells stably expressing GPR41; type: cell-based; conditions: ratio of RLU of FSK treated well to untreated well
Outline: (§2)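 GPR41-stable HEK293 cells were transiently transfected with a cAMP biosensor variant, then after 24 h equilibrated 2 h at room temperature with 5 mM EF-luc in CO2-independent medium with 10% FBS. Baseline luminescence was read, a sodium propionate concentration series added, and luminescence read after 30 min. EC50 and fold response were derived, with or without FSK.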

GPR41 [5] = target: T2, GPR41 (Homo sapiens, UniProt O14843); assay: as above; type: cell-based
T2 sequence (O14843 1-346): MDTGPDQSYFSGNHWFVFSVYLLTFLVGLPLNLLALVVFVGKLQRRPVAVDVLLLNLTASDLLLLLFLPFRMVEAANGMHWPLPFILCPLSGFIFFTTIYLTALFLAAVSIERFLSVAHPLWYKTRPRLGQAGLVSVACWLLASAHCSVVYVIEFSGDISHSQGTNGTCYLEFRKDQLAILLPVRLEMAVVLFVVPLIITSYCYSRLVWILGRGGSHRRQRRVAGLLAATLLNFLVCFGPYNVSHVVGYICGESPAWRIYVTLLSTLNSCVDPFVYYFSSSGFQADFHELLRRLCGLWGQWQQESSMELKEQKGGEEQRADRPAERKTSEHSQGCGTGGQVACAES
Outline: as §2

dopamine D2 receptor = target: T3, dopamine D2 receptor (Homo sapiens, UniProt P14416); assay: Inhibitory response to dopamine with or without forskolin in HEK293 cells stably expressing D2 (Gi pathway); type: cell-based; conditions: relative to biosensor with GSSGGSGGSGGG linker
T3 construct: expressed in transfected cells
T3 sequence (P14416 whole entry, species assumed): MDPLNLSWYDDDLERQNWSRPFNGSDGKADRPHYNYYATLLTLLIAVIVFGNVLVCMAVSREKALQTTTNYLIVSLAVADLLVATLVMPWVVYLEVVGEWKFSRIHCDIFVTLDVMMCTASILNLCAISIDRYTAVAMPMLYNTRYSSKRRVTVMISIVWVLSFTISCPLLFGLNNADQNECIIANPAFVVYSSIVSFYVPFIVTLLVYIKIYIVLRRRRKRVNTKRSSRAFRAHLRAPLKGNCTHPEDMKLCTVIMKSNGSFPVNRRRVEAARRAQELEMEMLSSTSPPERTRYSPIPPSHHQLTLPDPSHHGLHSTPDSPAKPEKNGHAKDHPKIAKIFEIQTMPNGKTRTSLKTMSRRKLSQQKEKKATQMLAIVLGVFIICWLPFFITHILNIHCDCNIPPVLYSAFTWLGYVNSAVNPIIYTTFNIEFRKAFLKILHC
Source text: as §1

RRFS: Photinus pyralis luciferase with valine 217 mutated to arginine to generate the site RRFS (Sala-Newby et al.)
decrease of activity when phosphorylated [1]: up to 80%

LRRASLG
reduction of activity on addition of kinase catalytic subunit [2]: 30%

B1: L9: cAMP biosensor, RIIβB E284A and V316I, linker GSIAGCGDAGEG; SEQ ID NO:104, 105 (protein)
chain: MPGAVGKVVPFFEAKVVDLDTGKTLGVNQRGELCVRGPMIMSGYVNNPEATNALIDKDGWLHSGDIAYWDEDEHFFIVDRLKSLIKYKGYQVAPAELESILLQHPNIFDAGVAGLPDDDAGELPAAVVVLEHGKTMTEKEIVDYVASQVTTAKKLRGGVVFVDEVPKGLTGKLDARKIREILIKAKKGSIAGCGDAGEGMYESFIESLPFLKSLEFSARLKVVDVIGTKVYNDGEQIIAQGDSADSFFIIESGEVKITMKRKGKSEVEENGAVEIARCSRGQYFGELALVTNKPRAASAHAIGTVKCLAMDVQAFERLLGPCMEIMKRNIATYEEQLVALFGTNMDIVAKNIKKGPAPFYPLEDGTAGEQLHKAMKRYALVPGTIAFTDAHIEVDITYAEYFEMSVRLAEAMKRYGLNTNHRIVVCSENSLQFFMPVLGALFIGVAVAPANDIYNERELLNSMGISQPTVVFVSKKGLQKILNVQKKLPIIQKIIIMDSKTDYQGFQSMYTFVTSHLPPGFNEYDFVPESFDRDKTIALIMNSSGSTGLPKGVALPHRTACVRFSHARDPIFGNQIIPDTAILSVVPFHHGFGMFTTLGYLICGFRVVLMYRFEEELFLRSLQDYKIQSALLVPTLFSFFAKSTLIDKYDLSNLHEIASGGAPLSKEVGEAVAKRFHLPGIRQGYGLTETTSAILITPEGV
fold response to isoproterenol induction of the Gs pathway [3]: improved fold response | Fold Signal Change (GPR41 [4]): 40.9 fold | Fold Response Na proprionate + FSK(1 μM) (GPR41 [5]; with FSK 1 μM): 2.60 fold | Fold Response Na proprionate (GPR41 [5]; without FSK, ratio of induced to uninduced signal): 2.73 fold | fold response for the Gi pathway (dopamine D2 receptor): improved fold response
